5 molecules from US20250296992A1 (Genmab, published 2025) can be followed below.

Assay [1] concerns the target T1, human SLITRK6 on cells (human, UniProt Q9H5Y7 27-841). The experiment in a line: cell-based or functional assay.
For assay [2], the target named is T1, human SLITRK6 on cells. The experiment in a line: flow cytometry on RT4 cells.
Procedure: (§1) The binding activity of mAbs and ADCs was evaluated by flow cytometer (Beckman, Cytoflex). Specifically, cells were incubated with 50 μL of mAbs or ADCs in series dilutions in PBS containing 1% BSA at 4° C. for 30 min. The cells were washed twice with PBS containing 1% BSA, stained with PE-conjugated anti human Fc in PBS containing 1% BSA and then incubated at 4° C. for 20 min. After that the cells were washed twice with PBS and analyzed by a flow cytometer.
For assay [3], the target named is T1, human SLITRK6 on cells. Description: flow cytometry on SW780 cells.
Procedure: as §1
The target of assay [4] is T1, human SLITRK6 on cells. Description: flow cytometry on CHP-212 cells.
Procedure: as §1
Assay [5] addresses T1, human SLITRK6 on cells. Description: flow cytometry on 293F-SLITRK6-C9 cells.
Procedure: as §1

B1: phA108-LD038 (8) (antibody, V domains shown)
VH: QVQLVQSGAEVKKPGASVKVSCTASGYIFNDYYLHWVRQAPGQGLEWVGIINPSGGSPVYAQKFQGRVTMTRDTSTNTVYMELSSLRSEDTAVYYCARGMVRGVRLFDYWGQGTLVTVSA
VL: EIVLTQSPATLSLSPGERATLSCRASQSVSSYLAWYQQKPGQTPRLLIYDASNRATGVPARFSGSGSGTDFTLTISSLETEDFAVYYCQQRTNWPLTFGGGTKVEIK
modifications: drug-linker LD038 on cysteines freed by TCEP reduction, DAR 8.0; positions not given
notes: also called phA108 ADC
Take B1: the “IC50 (nM), cytotoxicity on 293F-SLITRK6-C9 cells (Cell Titer-Glo)” value with human SLITRK6 on cells [1] turned out to be 0.06 nM. Besides, the “IC50 (nM), cytotoxicity on CHP-212 cells (Cell Titer-Glo)” value with human SLITRK6 on cells [1] worked out at 2.82 nM. Further, in the assay with human SLITRK6 on cells [1], the “IC50 (nM), cytotoxicity on RT4 cells (Cell Titer-Glo)” value (“IC50 (nM), cytotoxicity on RT4 cells” below) worked out at 7.29 nM. Besides, the EC50 with human SLITRK6 on cells [2] turned out to be 0.16 nM; with human SLITRK6 on cells [3] it was 0.29 nM; with human SLITRK6 on cells [4] it was 0.14 nM; with human SLITRK6 on cells [5], 1.09 nM.

B2: phA290-LD038 (8) (antibody, V domains shown)
VH: QVQLVQSGAEVKKPGASVKVSCKASGYTFTSYYMHWVRQAPGQGLEWMGIINPSGGSTSYAQKFQGRVTMTRDTSTSTVYMELSSLRSEDTAVYYCARGFTRYFDYWGQGTLVTVSA
VL: EIVMTQSPGTLSLSPGERATLSCRASQSVSKYLAWYQQRPGQAPRLLIYDASNRATGIPARFSGSGSGTDFTLTVSSLEPEDFAVYYCQQRYNWPLTFGGGTTVEIK
modifications: drug-linker LD038 on cysteines freed by TCEP reduction, DAR 8.0; positions not given
notes: also called phA290 ADC
Turning to B2, the “IC50 (nM), cytotoxicity on CHP-212 cells (Cell Titer-Glo)” value with human SLITRK6 on cells [1] is 1.22 nM. Moreover, in the assay with human SLITRK6 on cells [1], the “IC50 (nM), cytotoxicity on RT4 cells” value was 5.9 nM. Besides, the EC50 was 0.16 nM with human SLITRK6 on cells [2], 0.27 nM with human SLITRK6 on cells [3], 0.13 nM in the assay with human SLITRK6 on cells [4] and 0.79 nM with human SLITRK6 on cells [5].

B3: hu1H2-03-LD038 (8) (antibody, V domains shown)
VH: EVQLVESGGGLVQPGGSLRLSCAASGFTFSDYGLHWVRQAPGKGLEWVSYISSGSSTVYFADTLKGRFTISRDNAKNSLYLQMNSLRAEDTAVYYCTRGTWYFDVWGRGTLVTVSS
VL: DIQMTQSPSSLSASVGDRVTITCRTSENIHSYLAWYQQKPGKSPQLLVYNAKTLADGVPSRFSGSGSGTDYTLTISSLQPEDFGTFYCQHFWTTSRTFGGGTKVEIK
modifications: drug-linker LD038 on cysteines freed by TCEP reduction, DAR 8.0; positions not given
notes: also called hu1H2-03 ADC
For B3, the “IC50 (nM), cytotoxicity on CHP-212 cells (Cell Titer-Glo)” value with human SLITRK6 on cells [1] was 0.83 nM. Further, the “IC50 (nM), cytotoxicity on RT4 cells” value with human SLITRK6 on cells [1] is 7.02 nM. Also, the EC50 in the assay with human SLITRK6 on cells [2] amounted to 0.47 nM; with human SLITRK6 on cells [3], 0.44 nM; with human SLITRK6 on cells [4], 0.4 nM; with human SLITRK6 on cells [5] it was 1.35 nM.

B4: hu14G1-03-LD038 (8) (antibody, V domains shown)
VH: EVQLVESGGGLVQPGGSLRLSCAASGFTFSDYGMHWVRQAPGKGLEWVSYISPGSSTIYYADTMKGRFTISRDNAKNSLYLQMNSLRAEDTAVYYCARAYGGSYWYFAVWGQGTLVTVSS
VL: DIQMTQSPSSLSASVGDRVTITCRASGNIHSYLAWYQQKPGKSPQLLVYNAKTLADGVPSRFSGSGSGTDYTLTISSLQPEDFGTYYCQHFWSTPYTFGGGTKLEIK
modifications: drug-linker LD038 on cysteines freed by TCEP reduction, DAR 8.0; positions not given
notes: also called hu14G1-03 ADC
Take B4: the “IC50 (nM), cytotoxicity on CHP-212 cells (Cell Titer-Glo)” value with human SLITRK6 on cells [1] was determined as 0.91 nM. The “IC50 (nM), cytotoxicity on RT4 cells” value with human SLITRK6 on cells [1] is 9.56 nM. Also, the EC50 with human SLITRK6 on cells [2] was 0.46 nM; in the assay with human SLITRK6 on cells [3], 0.64 nM; in the assay with human SLITRK6 on cells [4] it was 0.65 nM; with human SLITRK6 on cells [5], 1.79 nM.

B5: hu1H2-13-LD038 (8) (antibody, V domains shown)
VH: EVQLVESGGGLVQPGGSLRLSCAASGFTFSDYGLHWVRQAPGKGLEWVAYISSGSSTVYFADTLKGRFTISRDNAKNSLYLQMNSLRAEDTAVYYCTRGTWYFDVWGRGTLVTVSS
VL: DIQMTQSPSSLSASVGDRVTITCRTSENIHSYLAWYQQKPGKSPQLLVYNAKTLADGVPSRFSGSGSGTDYTLTISSLQPEDFGTFYCQHFWTTSRTFGGGTKVEIK
modifications: drug-linker LD038 on cysteines freed by TCEP reduction, DAR 8.0; positions not given
notes: also called hu1H2-13 ADC
Take B5: the “IC50 (nM), cytotoxicity on 293F-SLITRK6-C9 cells (Cell Titer-Glo)” value with human SLITRK6 on cells [1] was found to be 0.06 nM. Also, the “IC50 (nM), cytotoxicity on CHP-212 cells (Cell Titer-Glo)” value in the assay with human SLITRK6 on cells [1] came out at 0.93 nM. Moreover, in the assay with human SLITRK6 on cells [1], the “IC50 (nM), cytotoxicity on RT4 cells” value is 5.06 nM. Besides, the EC50 with human SLITRK6 on cells [2] turned out to be 0.38 nM; with human SLITRK6 on cells [3] it was 0.61 nM; with human SLITRK6 on cells [4] it was 0.5 nM; in the assay with human SLITRK6 on cells [5], 1.6 nM.
